B1: anti-pHER3 dual binder consisting of ssFab 7.2.32, ssFab 4.1.15 and a flexible linker with a 4xC18 spacer (linker 12 of example 2.4) (bispecific antibody, V domains shown)
VH 1: EFEVQLQESGGGLVQPKGSLQLSCAASGFTFNTYAMHWVRQAPGKGLEWVARIRTESSDYATDYADSVKDRFIISRDDSQNMLYLQMNNLKSEDTAIYYCVRSSGFDYWGQGTTLTVSSS
VL 1: DIQMTQSPSLPVSLGDQASISCRSSQSLVHDNGNTYLHWFLQKPGQSPKLLIYKVSNRFSGVPDRFGGSGSGTDFTLKISGVEAEDLGVYFCSQGTHVPTFGGGTKLEIK
VH 2: EFEVQLQESGPELVKPGTSVTISCKTSGYAFSNSWMSWVKQRPGQGLEWIGRIFPGNGDTDYNGNFRAKATLTADKSSSTAFMQLSRLTSVDSAVYFCARSRGLRQGAGFAYWGQGTLVTVSA
VL 2: not shown
notes: Two recombinant Fab-oligo conjugates hybridised on biotinylated linker 12 ((Spacer C18)2-(Biotin-dT)-(Spacer C18)2)
B2: ssFab 4.1.15 (recombinant Fab 4.1.15 conjugated to the 17 mer oligo by sortase) (Fab, V domains shown)
VH: EVQLQESGPELVKPGTSVTISCKTSGYAFSNSWMSWVKQRPGQGLEWIGRIFPGNGDTDYNGNFRAKATLTADKSSSTAFMQLSRLTSVDSAVYFCARSRGLRQGAGFAYWGQGTLVTVSA
VL: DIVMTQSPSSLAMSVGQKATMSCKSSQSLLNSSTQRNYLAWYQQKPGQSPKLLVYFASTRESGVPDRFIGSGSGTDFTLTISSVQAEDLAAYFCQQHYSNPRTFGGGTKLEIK
notes: also called Fab-Oligo 4.1.15

Assays:
[1] = biological target: T1, mutated HER3(Y>F) in NRG1-beta1-stimulated Hek293 cells, 14 tyrosines of the intracellular domain replaced … (UniProt P21860 20-1342, limits assumed); test: IHC (Ventana BenchMark XT), FFPE Hek293 cells
T1 construct: whole, on cells; also called mutated version of HER3 lacking the Tyr1289 phosphorylation site
Protocol: The IHC experiments were performed on the BenchMark XT platform from Ventana. For the assay an anti-pHER3 dual binder was used that consisted of ssFab 7.2.32 (binding a non-phospho epitope of the intracellular domain of HER3), ssFab 4.1.15 (binding the pTyr1289 phospho-epitope of the intracellular domain of HER3) and a flexible linker. […] A biotin label within the linker molecule served as a detection tag for the streptavidin-based Ventana iVIEW DAB detection kit.
In order to test the specificity of the anti-pHER3 dual binder molecule an elaborate test system based on formalin-fixed paraffin-embedded (FFPE) Hek293 cells was used. Hek293 cells had been transiently transfected with both HER2 and HER3 expression vectors. In one case an HER3 expression vector was used that encodes an mutated version of HER3, in which 14 tyrosines of the intracellular domain that serve as phosphorylation sites are replaced with phenylalanines (Y975F, Y1054F, Y1132F, Y1159F, Y1197F, Y1199F, Y1222F, Y1224F, Y1260F, Y1262F, Y1276F, Y1289F, Y1307F, Y1328F). Cells were fixed with formalin and embedded in paraffin according to standard protocols. […]

[2] = biological target: T2, wild-type HER3 in unstimulated Hek293 cells (transfected with HER2 and HER3) (UniProt P21860 20-1342, limits assumed); test: IHC (Ventana BenchMark XT), ssFab on 4xC18 linker, FFPE Hek293 cells
T2 construct: whole, on cells; also called HER3 (unstimulated cells)
Description: (§1) Hek293 cells had been transiently transfected with both HER2 and HER3 expression vectors. In one case an HER3 expression vector was used that encodes an mutated version of HER3, in which 14 tyrosines of the intracellular domain that serve as phosphorylation sites are replaced with phenylalanines (Y975F, Y1054F, Y1132F, Y1159F, Y1197F, Y1199F, Y1222F, Y1224F, Y1260F, Y1262F, Y1276F, Y1289F, Y1307F, Y1328F). Cells were fixed with formalin and embedded in paraffin according to standard protocols.
(§2) 1 μg/ml per ssFab fragment of only ssFab 7.2.32 or only ssFab 4.1.15, respectively, and an equimolar amount of 4×C18 linker, as well as a mixture of both ssFab′ fragments of ssFab 7.2.32 and ssFab 4.1.15 (both at 1 μg/ml) and an equimolar amount of 4×C18 linker, respectively, were used for detection. A biotin label within the linker molecule served as a detection tag for the streptavidin-based Ventana iVIEW DAB detection kit.

[3] = biological target: T1, mutated HER3(Y>F) in …; test: as above
Description: as §1, §2

T1 sequence (P21860 other isoform, or with tags, fused parts or gaps limits assumed, change not shown): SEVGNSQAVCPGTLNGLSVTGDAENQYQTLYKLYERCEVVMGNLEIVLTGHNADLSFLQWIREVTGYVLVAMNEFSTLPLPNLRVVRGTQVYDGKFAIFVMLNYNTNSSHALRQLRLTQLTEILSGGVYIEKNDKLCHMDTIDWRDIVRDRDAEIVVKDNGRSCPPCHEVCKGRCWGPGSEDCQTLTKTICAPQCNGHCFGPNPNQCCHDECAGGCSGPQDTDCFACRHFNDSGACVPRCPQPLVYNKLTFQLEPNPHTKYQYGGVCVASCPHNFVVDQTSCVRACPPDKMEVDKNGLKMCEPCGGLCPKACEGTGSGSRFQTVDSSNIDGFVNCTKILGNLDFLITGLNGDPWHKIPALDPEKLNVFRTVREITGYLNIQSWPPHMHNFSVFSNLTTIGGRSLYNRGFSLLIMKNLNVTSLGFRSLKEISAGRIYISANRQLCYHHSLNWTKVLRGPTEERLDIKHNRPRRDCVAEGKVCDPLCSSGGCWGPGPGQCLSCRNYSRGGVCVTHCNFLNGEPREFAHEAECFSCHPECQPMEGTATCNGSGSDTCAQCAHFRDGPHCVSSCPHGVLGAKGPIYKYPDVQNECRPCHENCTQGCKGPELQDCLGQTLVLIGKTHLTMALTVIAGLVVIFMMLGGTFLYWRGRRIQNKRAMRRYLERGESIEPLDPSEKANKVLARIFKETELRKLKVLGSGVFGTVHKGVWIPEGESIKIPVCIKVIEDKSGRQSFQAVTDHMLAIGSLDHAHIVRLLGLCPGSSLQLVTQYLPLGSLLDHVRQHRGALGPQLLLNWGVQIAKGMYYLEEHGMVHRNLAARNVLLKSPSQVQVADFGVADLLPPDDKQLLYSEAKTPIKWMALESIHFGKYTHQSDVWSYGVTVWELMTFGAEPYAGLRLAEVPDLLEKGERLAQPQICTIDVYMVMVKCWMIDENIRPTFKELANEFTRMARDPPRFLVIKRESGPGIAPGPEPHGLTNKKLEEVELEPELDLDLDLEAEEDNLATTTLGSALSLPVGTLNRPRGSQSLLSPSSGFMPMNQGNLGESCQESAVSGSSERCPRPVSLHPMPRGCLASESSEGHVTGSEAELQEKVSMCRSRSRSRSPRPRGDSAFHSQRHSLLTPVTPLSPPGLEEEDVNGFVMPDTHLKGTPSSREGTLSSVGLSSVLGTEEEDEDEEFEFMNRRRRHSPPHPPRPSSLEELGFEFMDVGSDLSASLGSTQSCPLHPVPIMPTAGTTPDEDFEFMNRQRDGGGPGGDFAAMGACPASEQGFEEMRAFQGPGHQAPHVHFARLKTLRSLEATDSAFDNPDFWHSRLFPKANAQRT
T2 sequence (P21860 20-1342 limits assumed): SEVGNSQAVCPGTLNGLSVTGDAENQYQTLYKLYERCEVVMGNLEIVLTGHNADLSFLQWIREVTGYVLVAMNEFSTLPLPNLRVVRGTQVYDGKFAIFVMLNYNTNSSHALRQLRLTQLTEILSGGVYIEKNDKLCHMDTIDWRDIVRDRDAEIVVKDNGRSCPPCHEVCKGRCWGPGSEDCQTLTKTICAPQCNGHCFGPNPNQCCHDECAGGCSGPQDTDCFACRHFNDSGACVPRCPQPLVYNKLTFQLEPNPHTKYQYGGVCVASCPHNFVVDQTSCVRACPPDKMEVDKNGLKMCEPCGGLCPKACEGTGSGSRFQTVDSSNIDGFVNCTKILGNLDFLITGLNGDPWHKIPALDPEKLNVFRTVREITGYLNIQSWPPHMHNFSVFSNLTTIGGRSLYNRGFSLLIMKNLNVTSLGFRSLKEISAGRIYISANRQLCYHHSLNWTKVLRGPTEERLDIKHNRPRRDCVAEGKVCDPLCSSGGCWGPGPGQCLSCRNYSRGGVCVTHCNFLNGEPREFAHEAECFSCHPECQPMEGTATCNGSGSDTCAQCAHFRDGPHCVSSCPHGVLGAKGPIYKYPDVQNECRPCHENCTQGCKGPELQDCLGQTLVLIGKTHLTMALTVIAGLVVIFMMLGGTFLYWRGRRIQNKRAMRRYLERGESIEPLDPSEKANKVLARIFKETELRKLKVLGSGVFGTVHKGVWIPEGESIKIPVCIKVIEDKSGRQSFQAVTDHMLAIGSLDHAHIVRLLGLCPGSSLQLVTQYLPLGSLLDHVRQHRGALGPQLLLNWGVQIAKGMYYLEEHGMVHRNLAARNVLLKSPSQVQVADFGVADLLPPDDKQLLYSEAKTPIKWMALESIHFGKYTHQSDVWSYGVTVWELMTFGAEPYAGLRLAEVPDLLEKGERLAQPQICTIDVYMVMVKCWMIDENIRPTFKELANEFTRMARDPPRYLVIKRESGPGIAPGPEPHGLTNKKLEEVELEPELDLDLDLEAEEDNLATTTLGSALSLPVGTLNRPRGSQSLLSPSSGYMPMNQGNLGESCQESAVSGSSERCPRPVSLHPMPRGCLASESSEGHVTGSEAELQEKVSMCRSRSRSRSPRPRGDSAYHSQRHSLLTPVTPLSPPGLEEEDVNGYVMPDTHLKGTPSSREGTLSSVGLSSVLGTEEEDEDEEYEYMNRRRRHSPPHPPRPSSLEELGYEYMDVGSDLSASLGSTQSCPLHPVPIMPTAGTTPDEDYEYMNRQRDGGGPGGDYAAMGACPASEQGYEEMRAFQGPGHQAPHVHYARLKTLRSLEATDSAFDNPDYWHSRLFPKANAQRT

Row | Binder | binding result [1] | binding result [2] | binding result [3]
1 | B1 | no binding (tested: 1 µg/ml per ssFab) |  | 
2 | B2 |  | no binding (tested: 1 µg/ml) | no binding (tested: 1 µg/ml)
